{"source": "patent US20260183408A1", "about": "“POLYPEPTIDE AND USE THEREOF” (SHENZHEN CHENYANG BIOLOGICAL TECHNOLOGY CO., LTD, priority 2022, published 2026)", "note": "Ends that are not written are not given here.", "data": [{"molecular_target": "T1, 5-HT2CR (Mus musculus, UniProt P34968)", "T1 construct": "The dissolved mouse hippocampal tissue extract (with 500 μg protein); from tissue; host or cells: mouse hippocampus", "T1 sequence (P34968 33-459)": "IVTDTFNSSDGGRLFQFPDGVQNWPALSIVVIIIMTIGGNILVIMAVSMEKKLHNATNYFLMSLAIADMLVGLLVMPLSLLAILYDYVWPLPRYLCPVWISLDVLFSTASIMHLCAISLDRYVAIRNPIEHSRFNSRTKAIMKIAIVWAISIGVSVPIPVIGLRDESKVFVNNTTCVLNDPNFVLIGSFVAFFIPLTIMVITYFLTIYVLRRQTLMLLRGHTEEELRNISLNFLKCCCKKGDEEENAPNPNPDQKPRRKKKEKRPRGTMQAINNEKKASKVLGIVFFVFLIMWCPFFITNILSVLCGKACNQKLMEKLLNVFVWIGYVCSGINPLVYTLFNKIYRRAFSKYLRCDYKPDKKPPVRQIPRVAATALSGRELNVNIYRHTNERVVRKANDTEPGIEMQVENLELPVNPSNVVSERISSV", "experiment": "GST pulldown assay for mouse hippocampal tissue with D2R fragments", "format": "binding", "conditions": "GST fusion protein of the D2R region, mouse hippocampal tissue extract, Western blotting (FIG. 4)", "description": "In order to identify the binding site of the D2R/5-HT2CR complex, full-length D2R cDNA clone (Genbank Accession No. X51645) was first amplified to obtain the cDNA fragments of the CT region of D2R (D2R-CT, T428-C443) and the third intracellular loop (IL3) region of D2R (D2R-IL3, K211-Q373). These fragments were subcloned into the BamH1/EcoR1 or BamH1/Xho1 site of pGEX-4T-3 plasmids (YouBio no: VT1255). The initiation methionine residue and the termination codon were incorporated when appropriate. All constructs were resequenced to confirm that the splicing fusion was properly achieved. E. coli BL21 viable cells (KangTi Life Technology, no: KTSM104L) were used for expression, and purification was performed to obtain the GST fusion protein containing the IL3 region of D2R (GST-D2R-IL3) and the GST fusion protein containing the CT region of D2R (GST-D2R-CT) from the bacterial lysates.\nThe dissolved mouse hippocampal tissue extract (with 500 μg protein) was diluted with 1×PBS/1% Triton X-100 and subsequently incubated with 20 μl of protein-GST-resin saturated with only GST protein or 15 μg of the GST fusion protein described above overnight at 4° C. Beads were washed with 1×PBS/1% Triton X-100 for 1-8 times. The bound proteins were eluted with SDS-PAGE Protein Loading Buffer (YeSen, no: 20315ES05), separated with SDS-PAGE, and subjected to Western blotting with their respective antibodies. Results were as shown in panel A of FIG. 4.\nAccording to the method in this Example, pulldown analysis was performed using the GST fusion protein containing the KVC region of D2R (GST-D2R-KVC), the GST fusion protein containing the ES region of D2R (GST-D2R-ES), and the GST fusion protein containing the PQ region of D2R (GST-D2R-PQ), and the Western blotting results were shown in panel B of FIG. 4. […]", "values": [{"molecule": "KVC region of D2R: GST fusion protein containing the KVC (K211-V270) region of D2R (KIYIVLRRRRKRVNTKRSSRAFRAHLRAPLKGNCTHPEDMKLCTVIMKSNGSFPVNRRRV; cysteine pairing not given here; also: GST fusion protein)", "pull down of 5-HT2CR": "could pull down the 5-HT2CR"}, {"molecule": "KL polypeptide: K226-L240 region of D2R, SEQ ID NO: 1; tested in the pulldown as GST fusion protein GST-D2R-KL (KRSSRAFRAHLRAPL)", "pull down of 5-HT2CR": "could associate with 5-HT2CR"}, {"molecule": "IL3 region of D2R: GST fusion protein containing the third intracellular loop (IL3) region of D2R, K211-Q373 (protein, left off: a dimerising Fc or GST; large carriers; small tags and cut ends, GST fusion protein containing the third intracellular loop (IL3) region of D2R, K211-Q373) KIYIVLRRRRKRVNTKRSSRAFRAHLRAPLKGNCTHPEDMKLCTVIMKSNGSFPVNRRRVEAARRAQELEMEMLSSTSPPERTRYSPIPPSHHQLTLPDPSHHGLHSTPDSPAKPEKNGHAKDHPKIAKIFEIQTMPNGKTRTSLKTMSRRKLSQQKEKKATQ", "pull down of 5-HT2CR": "could pull down the 5-HT2CR"}]}]}
